How the values were obtained:
[1] = biological target: DCAF16 with HaloTag added to the C-terminal (expressed from plasmid pFC27K_DCAF16) (human) (UniProt Q9NXF7); assay: NanoBRET in HEK293 cells, Nluc-BRD2 and DCAF16-HaloTag with 618 Ligand, MLN4924; 1.0 umol/L compound 1h
[2] = biological target: DCAF16 with HaloTag added to the C-terminal (expressed from plasmid pFC27K_DCAF16) (human) (UniProt Q9NXF7); assay: NanoBRET in HEK293 cells, Nluc-BRD2 and DCAF16-HaloTag with 618 Ligand, MLN4924; 1.0 umol/L compound 1l
[3] = biological target: DCAF16 with HaloTag added to the C-terminal (expressed from plasmid pFC27K_DCAF16) (human) (UniProt Q9NXF7); assay: NanoBRET in HEK293 cells, Nluc-BRD2 and DCAF16-HaloTag with 618 Ligand, MLN4924; 1.0 umol/L compound 3a
[4] = biological target: DCAF16 with HaloTag added to the C-terminal (expressed from plasmid pFC27K_DCAF16) (human) (UniProt Q9NXF7); assay: NanoBRET in HEK293 cells, Nluc-BRD2 and DCAF16-HaloTag with 618 Ligand, MLN4924; 1.0 umol/L compound 3b
[5] = biological target: DCAF16 with HaloTag added to the C-terminal (expressed from plasmid pFC27K_DCAF16) (human) (UniProt Q9NXF7); assay: NanoBRET in HEK293 cells, Nluc-BRD2 and DCAF16-HaloTag with 618 Ligand, MLN4924; 1.0 umol/L compound 3e
[6] = biological target: DCAF16 with HaloTag added to the C-terminal (expressed from plasmid pFC27K_DCAF16) (human) (UniProt Q9NXF7); assay: NanoBRET in HEK293 cells, Nluc-BRD2 and DCAF16-HaloTag with 618 Ligand, MLN4924; 1.0 umol/L compound 6k
[7] = biological target: DCAF16 with HaloTag added to the C-terminal (expressed from plasmid pFC27K_DCAF16) (human) (UniProt Q9NXF7); assay: NanoBRET in HEK293 cells, Nluc-BRD2 and DCAF16-HaloTag with 618 Ligand, MLN4924; 1.0 umol/L compound 7o
[8] = biological target: DCAF16 with HaloTag added to the C-terminal (expressed from plasmid pFC27K_DCAF16) (human) (UniProt Q9NXF7); assay: NanoBRET in HEK293 cells, Nluc-BRD2 and DCAF16-HaloTag with 618 Ligand, MLN4924; 1.0 umol/L compound 7p
[9] = biological target: DCAF16 with HaloTag added to the C-terminal (expressed from plasmid pFC27K_DCAF16) (human) (UniProt Q9NXF7); assay: NanoBRET in HEK293 cells, Nluc-BRD2 and DCAF16-HaloTag with 618 Ligand, MLN4924; 1.0 umol/L compound 8a
[10] = biological target: DCAF16 with HaloTag added to the C-terminal (expressed from plasmid pFC27K_DCAF16) (human) (UniProt Q9NXF7); assay: NanoBRET in HEK293 cells, Nluc-BRD2 and DCAF16-HaloTag with 618 Ligand, MLN4924; 1.0 umol/L compound 8j
[11] = biological target: DCAF16 with HaloTag added to the C-terminal (expressed from plasmid pFC27K_DCAF16) (human) (UniProt Q9NXF7); assay: NanoBRET in HEK293 cells, Nluc-BRD2 and DCAF16-HaloTag with 618 Ligand, MLN4924; 1.0 umol/L compound 12c
[12] = biological target: DCAF16 with HaloTag added to the C-terminal (expressed from plasmid pFC27K_DCAF16) (human) (UniProt Q9NXF7); assay: NanoBRET in HEK293 cells, Nluc-BRD2 and DCAF16-HaloTag with 618 Ligand, MLN4924; 1.0 umol/L compound 15a
[13] = biological target: DCAF16 with HaloTag added to the C-terminal (expressed from plasmid pFC27K_DCAF16) (human) (UniProt Q9NXF7); assay: NanoBRET in HEK293 cells, Nluc-BRD2 and DCAF16-HaloTag with 618 Ligand, MLN4924; 1.0 umol/L compound 15f
[14] = biological target: DCAF16 with HaloTag added to the C-terminal (expressed from plasmid pFC27K_DCAF16) (human) (UniProt Q9NXF7); assay: NanoBRET in HEK293 cells, Nluc-BRD2 and DCAF16-HaloTag with 618 Ligand, MLN4924; DMSO control without test compound
[15] = biological target: DCAF16 with HaloTag added to the C-terminal (expressed from plasmid pFC27K_DCAF16) (human) (UniProt Q9NXF7); assay: NanoBRET in HEK293 cells, Nluc-BRD2 and DCAF16-HaloTag with 618 Ligand, bortezomib; 10 umol/L compound 1h; mean of n=3
[16] = biological target: DCAF16 with HaloTag added to the C-terminal (expressed from plasmid pFC27K_DCAF16) (human) (UniProt Q9NXF7); assay: NanoBRET in HEK293 cells, Nluc-BRD2 and DCAF16-HaloTag with 618 Ligand, bortezomib; 10 umol/L compound 1l; mean of n=3
[17] = biological target: DCAF16 with HaloTag added to the C-terminal (expressed from plasmid pFC27K_DCAF16) (human) (UniProt Q9NXF7); assay: NanoBRET in HEK293 cells, Nluc-BRD2 and DCAF16-HaloTag with 618 Ligand, bortezomib; 10 umol/L compound 3a; mean of n=3
[18] = biological target: DCAF16 with HaloTag added to the C-terminal (expressed from plasmid pFC27K_DCAF16) (human) (UniProt Q9NXF7); assay: NanoBRET in HEK293 cells, Nluc-BRD2 and DCAF16-HaloTag with 618 Ligand, bortezomib; 10 umol/L compound 3b; mean of n=3
[19] = biological target: DCAF16 with HaloTag added to the C-terminal (expressed from plasmid pFC27K_DCAF16) (human) (UniProt Q9NXF7); assay: NanoBRET in HEK293 cells, Nluc-BRD2 and DCAF16-HaloTag with 618 Ligand, bortezomib; 10 umol/L compound 3e; mean of n=3
[20] = biological target: DCAF16 with HaloTag added to the C-terminal (expressed from plasmid pFC27K_DCAF16) (human) (UniProt Q9NXF7); assay: NanoBRET in HEK293 cells, Nluc-BRD2 and DCAF16-HaloTag with 618 Ligand, bortezomib; 10 umol/L compound 6k; mean of n=3
[21] = biological target: DCAF16 with HaloTag added to the C-terminal (expressed from plasmid pFC27K_DCAF16) (human) (UniProt Q9NXF7); assay: NanoBRET in HEK293 cells, Nluc-BRD2 and DCAF16-HaloTag with 618 Ligand, bortezomib; 10 umol/L compound 7o; mean of n=3
[22] = biological target: DCAF16 with HaloTag added to the C-terminal (expressed from plasmid pFC27K_DCAF16) (human) (UniProt Q9NXF7); assay: NanoBRET in HEK293 cells, Nluc-BRD2 and DCAF16-HaloTag with 618 Ligand, bortezomib; 10 umol/L compound 7p; mean of n=3
[23] = biological target: DCAF16 with HaloTag added to the C-terminal (expressed from plasmid pFC27K_DCAF16) (human) (UniProt Q9NXF7); assay: NanoBRET in HEK293 cells, Nluc-BRD2 and DCAF16-HaloTag with 618 Ligand, bortezomib; 10 umol/L compound 8a; mean of n=3
[24] = biological target: DCAF16 with HaloTag added to the C-terminal (expressed from plasmid pFC27K_DCAF16) (human) (UniProt Q9NXF7); assay: NanoBRET in HEK293 cells, Nluc-BRD2 and DCAF16-HaloTag with 618 Ligand, bortezomib; 10 umol/L compound 8j; mean of n=3
[25] = biological target: DCAF16 with HaloTag added to the C-terminal (expressed from plasmid pFC27K_DCAF16) (human) (UniProt Q9NXF7); assay: NanoBRET in HEK293 cells, Nluc-BRD2 and DCAF16-HaloTag with 618 Ligand, bortezomib; 10 umol/L compound 12c; mean of n=3
[26] = biological target: DCAF16 with HaloTag added to the C-terminal (expressed from plasmid pFC27K_DCAF16) (human) (UniProt Q9NXF7); assay: NanoBRET in HEK293 cells, Nluc-BRD2 and DCAF16-HaloTag with 618 Ligand, bortezomib; 10 umol/L compound 15a; mean of n=3
[27] = biological target: DCAF16 with HaloTag added to the C-terminal (expressed from plasmid pFC27K_DCAF16) (human) (UniProt Q9NXF7); assay: NanoBRET in HEK293 cells, Nluc-BRD2 and DCAF16-HaloTag with 618 Ligand, bortezomib; 10 umol/L compound 15f; mean of n=3
[28] = biological target: DCAF16 with HaloTag added to the C-terminal (expressed from plasmid pFC27K_DCAF16) (human) (UniProt Q9NXF7); assay: NanoBRET in HEK293 cells, Nluc-BRD2 and DCAF16-HaloTag with 618 Ligand, bortezomib; DMSO control without test compound; mean of n=3
[29] = biological target: DCAF16 with HaloTag added to the C-terminal (expressed from plasmid pFC27K_DCAF16) (human) (UniProt Q9NXF7); assay: NanoBRET in HEK293 cells, Nluc-BRD2 and DCAF16-HaloTag with 618 Ligand, MLN4924; 1.0 umol/L comparative compound 1 (compound P3, known bivalent BET inhibitor)

Chain of DCAF16 with HaloTag added to the C-terminal (expressed from plasmid pFC27K_DCAF16) (human) (Q9NXF7 whole entry): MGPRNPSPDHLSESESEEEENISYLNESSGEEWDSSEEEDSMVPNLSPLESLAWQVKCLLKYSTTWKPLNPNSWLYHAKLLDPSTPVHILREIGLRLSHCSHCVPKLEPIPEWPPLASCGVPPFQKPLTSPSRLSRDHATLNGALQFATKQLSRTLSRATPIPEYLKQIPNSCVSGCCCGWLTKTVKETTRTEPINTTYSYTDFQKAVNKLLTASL

BRD2 with an Nluc tag added to the N-terminal (expressed from plasmid pFN31A_BRD2) (from UniProt P25440 1-801)
BRET Ratio [1]: 10.9 | BRET Ratio [2]: 14.9 | BRET Ratio [3]: 14.5 | BRET Ratio [4]: 9.69 | BRET Ratio [5]: 9.58 | BRET Ratio [6]: 12.6 | BRET Ratio [7]: 13 | BRET Ratio [8]: 11.6 | BRET Ratio [9]: 12.4 | BRET Ratio [10]: 11.9 | BRET Ratio [11]: 13.2 | BRET Ratio [12]: 9.59 | BRET Ratio [13]: 12.4 | BRET Ratio [14]: 0.99 | BRET Ratio [15]: 6.84 | BRET Ratio [16]: 8.03 | BRET Ratio [17]: 8.51 | BRET Ratio [18]: 6.06 | BRET Ratio [19]: 5.96 | BRET Ratio [20]: 7.07 | BRET Ratio [21]: 6.69 | BRET Ratio [22]: 6.8 | BRET Ratio [23]: 7.27 | BRET Ratio [24]: 7.07 | BRET Ratio [25]: 7.6 | BRET Ratio [26]: 5.88 | BRET Ratio [27]: 5.99 | BRET Ratio [28]: 1.51 | BRET Ratio [29]: 1.93

Reference: patent US20220378923A1, “BET DEGRADER” (KYOWA KIRIN CO., LTD., priority 2019, published 2022)
